Measurements taken from the supplement of paper PMC10598134.
± gives the standard deviation.

Test: collision cross section of modified peptide (TIMS, N2, iRT-aligned); higher = larger / more extended gas-phase ion
Procedure, shortened: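 Values are averages of 1–3 technical replicates of the most abundant feature for each charge state. Collision cross section was obtained from the Mason-Schamp equation after 1/K0 calibration with three reference ions and run-wise alignment to the median iRT peptide deviation. Synthetic peptide pools (iRT standard spiked 1:40) were separated on a 120-min nanoflow C18 gradient at 60 °C, analysed on a timsTOF Pro/HT (dda-PASEF, nitrogen, ~2.4 mbar) and identified with MaxQuant.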

[1] = charge state: 2, modification: Propionyl
[2] = charge state: 2, modification: Succinyl
[3] = charge state: 2, modification: Trimethyl (K)
[4] = charge state: 3, modification: Trimethyl (K)
[5] = charge state: 2, modification: hydroxyisobutyryl
[6] = charge state: 2, modification: HexNAc (ST)
[7] = charge state: 3, modification: HexNAc (ST)
[8] = charge state: 2, modification: Acetyl (K)
[9] = charge state: 2, modification: Butyryl
[10] = charge state: 2, modification: Crotonyl
[11] = charge state: 2, modification: Dimethyl (K)
[12] = charge state: 3, modification: Dimethyl (K)
[13] = charge state: 2, modification: Formyl
[14] = charge state: 2, modification: Glutarylation
[15] = charge state: 2, modification: GlyGly (K)
[16] = charge state: 3, modification: GlyGly (K)
[17] = charge state: 2, modification: Malonyl
[18] = charge state: 2, modification: Methyl (K)
[19] = charge state: 3, modification: Methyl (K)

Question: What does the source list for “SLGEPAAGEGSAKR [_SLGEPAAGEGSAK(Propionyl)R_]”?
Answer: collision cross section [1]: 383.35 ± 1.5 Å²; collision cross section (charge state: 3, modification: Propionyl): 488 ± 0.51 Å²

Question: Which results are given for “SLGEPAAGEGSAKR [_SLGEPAAGEGSAK(Succinyl)R_]”?
Answer: collision cross section [2]: 381.88 ± 0.8 Å²; collision cross section (charge state: 3, modification: Succinyl): 476.57 ± 0.7 Å²

Question: With “SLGEPAAGEGSAKR [_SLGEPAAGEGSAK(Trimethyl (K))R_]” as the sequence, how does the collision cross section [3] read?
Answer: 404.92 ± 19 Å²

Question: What about the collision cross section [4] of the same sequence?
Answer: 462.02 ± 2.7 Å²

Question: With “SLGEPAAGEGSAKR [_SLGEPAAGEGSAK(hydroxyisobutyryl)R_]” as the sequence, how does the collision cross section [5] read?
Answer: 389.47 ± 1.5 Å²

Question: What about the collision cross section (charge state: 3, modification: hydroxyisobutyryl) of the same sequence?
Answer: 485.86 ± 2.8 Å²

Question: Which collision cross section [6] does the source give for “SLIGKVDGTSHVTGK [_SLIGKVDGT(HexNAc (ST))SHVTGK_]” here?
Answer: 438.41 Å²

Question: With “SLIGKVDGTSHVTGK [_SLIGKVDGTSHVT(HexNAc (ST))GK_]” as the sequence, how does the collision cross section [7] read?
Answer: 501.68 ± 0.18 Å²

Question: With SLKLNTAEDAK [_SLK(Acetyl (K))LNTAEDAK_] as the sequence, how does the collision cross section [8] read?
Answer: 373.49 ± 1.6 Å²

Question: Which collision cross section (charge state: 2, modification: Biotin) does the source give for SLKLNTAEDAK [_SLK(Biotin)LNTAEDAK_] here?
Answer: 397.96 Å²

Question: For SLKLNTAEDAK [_SLK(Butyryl)LNTAEDAK_], which collision cross section [9] is on record?
Answer: 378.05 ± 1.5 Å²

Question: With SLKLNTAEDAK [_SLK(Crotonyl)LNTAEDAK_] as the sequence, how does the collision cross section [10] read?
Answer: 378.17 ± 0.26 Å²

Question: What does the source list for “SLKLNTAEDAK [_SLK(Dimethyl (K))LNTAEDAK_]”?
Answer: collision cross section [11]: 369.7 ± 0.36 Å²; collision cross section [12]: 468.91 ± 1.6 Å²

Question: For SLKLNTAEDAK [_SLK(Formyl)LNTAEDAK_], which collision cross section [13] is on record?
Answer: 369.44 ± 0.39 Å²

Question: With “SLKLNTAEDAK [_SLK(Gluratylation)LNTAEDAK_]” as the sequence, how does the collision cross section [14] read?
Answer: 381.67 ± 0.53 Å²

Question: With SLKLNTAEDAK [_SLK(GlyGly (K))LNTAEDAK_] as the sequence, how does the collision cross section [15] read?
Answer: 394.52 ± 0.87 Å²

Question: What about the collision cross section [16] of the same sequence?
Answer: 458.17 ± 2 Å²

Question: For SLKLNTAEDAK [_SLK(Malonyl)LNTAEDAK_], which collision cross section [17] is on record?
Answer: 374.06 ± 0.0012 Å²

Question: What does the source list for SLKLNTAEDAK [_SLK(Methyl (K))LNTAEDAK_]?
Answer: collision cross section [18]: 364.71 ± 0.36 Å²; collision cross section [19]: 470.64 ± 4.7 Å²

Question: Which collision cross section [1] does the source give for SLKLNTAEDAK [_SLK(Propionyl)LNTAEDAK_] here?
Answer: 376 ± 0.94 Å²

Question: Which collision cross section [2] does the source give for SLKLNTAEDAK [_SLK(Succinyl)LNTAEDAK_] here?
Answer: 377.2 ± 0.87 Å²

Question: Which collision cross section [3] does the source give for “SLKLNTAEDAK [_SLK(Trimethyl (K))LNTAEDAK_]” here?
Answer: 378.59 ± 0.02 Å²

Question: And the collision cross section [4]?
Answer: 461.43 ± 2.4 Å²

Question: Which collision cross section [5] does the source give for “SLKLNTAEDAK [_SLK(hydroxyisobutyryl)LNTAEDAK_]” here?
Answer: 378.64 ± 0.28 Å²

Question: With “SLYASSPGGVYATR [_S(HexNAc (ST))LYASSPGGVYATR_]” as the sequence, how does the collision cross section [7] read?
Answer: 478.28 ± 0.91 Å²

Question: With “SLYASSPGGVYATR [_SLYAS(HexNAc (ST))SPGGVYATR_]” as the sequence, how does the collision cross section [6] read?
Answer: 421.13 ± 0.62 Å²

Question: For “SNEEGSEEKGPEVR [_SNEEGSEEK(Acetyl (K))GPEVR_]”, which collision cross section [8] is on record?
Answer: 400.7 ± 1 Å²

Question: What does the source list for “SNEEGSEEKGPEVR [_SNEEGSEEK(Butyryl)GPEVR_]”?
Answer: collision cross section [9]: 407.11 ± 0.23 Å²; collision cross section (charge state: 3, modification: Butyryl): 490.17 Å²

Question: For “SNEEGSEEKGPEVR [_SNEEGSEEK(Crotonyl)GPEVR_]”, which collision cross section [10] is on record?
Answer: 406.51 ± 0.28 Å²

Question: With “SNEEGSEEKGPEVR [_SNEEGSEEK(Dimethyl (K))GPEVR_]” as the sequence, how does the collision cross section [11] read?
Answer: 393.74 ± 1.1 Å²

Question: What about the collision cross section [12] of the same sequence?
Answer: 467.17 ± 0.73 Å²

Question: For “SNEEGSEEKGPEVR [_SNEEGSEEK(Formyl)GPEVR_]”, which collision cross section [13] is on record?
Answer: 397.09 ± 0.55 Å²

Question: Which collision cross section [14] does the source give for “SNEEGSEEKGPEVR [_SNEEGSEEK(Gluratylation)GPEVR_]” here?
Answer: 407.15 ± 0.96 Å²

Question: What about the collision cross section (charge state: 3, modification: Glutarylation) of the same sequence?
Answer: 470.21 Å²

Question: Which results are given for “SNEEGSEEKGPEVR [_SNEEGSEEK(GlyGly (K))GPEVR_]”?
Answer: collision cross section [15]: 409.13 ± 2.5 Å²; collision cross section [16]: 474.76 ± 1.1 Å²

Question: For “SNEEGSEEKGPEVR [_SNEEGSEEK(Malonyl)GPEVR_]”, which collision cross section [17] is on record?
Answer: 402.09 ± 1.6 Å²

Question: Which collision cross section [18] does the source give for “SNEEGSEEKGPEVR [_SNEEGSEEK(Methyl (K))GPEVR_]” here?
Answer: 394.85 ± 7.3 Å²

Question: What about the collision cross section [19] of the same sequence?
Answer: 481.38 ± 2.6 Å²

Question: With “SNEEGSEEKGPEVR [_SNEEGSEEK(Propionyl)GPEVR_]” as the sequence, how does the collision cross section [1] read?
Answer: 404.8 ± 1.3 Å²

Question: With “SNEEGSEEKGPEVR [_SNEEGSEEK(Succinyl)GPEVR_]” as the sequence, how does the collision cross section [2] read?
Answer: 403.42 ± 0.55 Å²

Question: With “SNEEGSEEKGPEVR [_SNEEGSEEK(Trimethyl (K))GPEVR_]” as the sequence, how does the collision cross section [3] read?
Answer: 400.43 Å²

Question: And the collision cross section [4]?
Answer: 464.15 ± 1.8 Å²

Question: With “SNEEGSEEKGPEVR [_SNEEGSEEK(hydroxyisobutyryl)GPEVR_]” as the sequence, how does the collision cross section [5] read?
Answer: 409.53 ± 1.1 Å²

Question: Which collision cross section (charge state: 2, modification: Nitro (Y)) does the source give for “SPASDTYIVFGEAK [_SPASDTY(Nitro (Y))IVFGEAK_]” here?
Answer: 402.5 ± 0.55 Å²

Question: And the collision cross section (charge state: 3, modification: Nitro (Y))?
Answer: 486.92 Å²

Question: Which collision cross section (charge state: 2, modification: Phospho (Y)) does the source give for “SPASDTYIVFGEAK [_SPASDTY(Phospho (Y))IVFGEAK_]” here?
Answer: 410.05 Å²
